Publication PMC11608337 (Nature Communications, 2024)

T1: RING domain of IRF2BP2 (residues 498-578) (UniProt Q7Z5L9 498-578)
T1 sequence (looked up): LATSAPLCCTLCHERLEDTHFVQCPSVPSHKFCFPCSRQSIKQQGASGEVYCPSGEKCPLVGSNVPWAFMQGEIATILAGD


Target: T1, RING domain of IRF2BP2 (residues …)
Assay: ITC

Row | Binder | fold increase of binding affinity (KD) over the shorter peptide [fold] | Kd [µM]
1 | ERQQNRPSVITCASAG (peptide, UniProt Q14135 156-171, looked up) [VGLL4-L (residues 156-171)] | 2.1 | –
2 | GPGTPTRSSVITSARELHYG (peptide, UniProt Q05516 279-298, looked up) [ZBTB16-L (residues 279-298)] | – | 7.21
3 | RASVIKKT [IRF2 peptide (residues 331-338, RASVIKKT)] | – | 6.45
4 | RSVLVHAG [NFAT1 peptide (residues 782-789, RSVLVHAG)] | – | 514
5 | RSSVITSA [RxSVI motif-containing peptide of ZBTB16 (residues 285-292, RSSVITSA)] | – | 12.6
6 | RGSVITSA [mouse ZBTB16 peptide (residues 285-292, RGSVITSA)] | – | 16.8
7 | RPDRETRASVIKKTSDITQ (peptide, UniProt P14316 325-343, looked up) [IRF2-L (residues 325-343)] | 3.9 | –
